{"source": "the RNAGym collection of RNA variant scans (doi:10.1073/pnas.2313332121)", "parents": {"B1": {"name": "TPR 5TU (parent)", "chain": "GGAUCUUCUCGAUCUAACAAAAAAGACAAAUCUGCCACAAAGCUUGAGAGCAUCUUCGGAUGCAGAGGCGGCAGCCUUCGGUGGCGCGAUAGCGCCAACGUUCUCAACUAUGACACGCAAAACGCGUGCUCCGUUGAAUGGAGUUUAUCAUG"}}, "note": "Variants at the floor of the assay were thinned out.", "data": [{"variants_of": "B1", "experiment": "polymerase ribozyme fitness, log enrichment relative to wild type (log ratio); higher = more active; in vitro selection for triplet polymerase activity", "how_it_was_run": "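Fitness compares each genotype's enrichment to that of the wild type on a logarithmic scale, averaging replicates with inverse-variance weights. The logarithm is base 2. Enrichment came from Illumina sequencing of input and output libraries after one triplicate round of in vitro selection, which included frozen incubation at −7 °C, of PCR-built, transcribed mutant libraries of each subunit of a heterodimeric triplet polymerase ribozyme. Only genotypes with ≥10 input reads and ≥1 read per output were kept.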", "values": [{"variant": "GGAUCUUCUCGAUCUAACUAAAAAGACAAAUCUGCCACUAAGCUUGAGAGCAUCUACGGAUGCAGAGGCGGCAGCCUUCGGUGGCGCGAUAGCGCCAACGUUCUCAACUAUGACACGCAAAACGCGUGCUCCGUUGAAUGGAGUUUAUCAUG", "note": "[A19U A39U U56A]", "polymerase ribozyme fitness (log ratio)": -2.83}, {"variant": "GGAUCUUCUCGAUCUAACUAAAAAGACAAAUCUGCCACAAAGCUUGAGAGUAUCUUCGGAUGCAGAGGCGGCAGCCUUCGGUGGCGCGAUUGCACCAACGUUCUCAACUAUGACACGCAAAACGCGUGCUCCAUUGCAUGGAGUUUAUCAUG", "note": "[A19U C51U A91U G94A G133A A137C]", "polymerase ribozyme fitness (log ratio)": "≤ -4.2"}, {"variant": "GGAUCUUCUCGAUCUAACUAAAAAGACAAAUCUGCCACAAAGCUUGAGAGCAUCUUCGGAUGCAGAGGCGGCAGCCUUCGGUGGCGCGAUUGCGCCAACGUUCUCAACUAUGACACGCAAAACGCGUGCUCCGUUGAAUGGAGUUUAUCAUG", "note": "[A19U A91U]", "polymerase ribozyme fitness (log ratio)": "≤ -4.2"}, {"variant": "GGAUCUUCUCGAUCUAACUAAAAAGACAAAUCUGCCACAAAGCUUGAGAGCAUCUUCGGAUGCAGAGGCGGCAGCCUUCGGUGGCGCGAUGGCGCCAACGUUCUCAACUAUGACACGCAAAACGCGUGCUCCGUUGAAUGGAGUUUAUCAUG", "note": "[A19U A91G]", "polymerase ribozyme fitness (log ratio)": -2.85}, {"variant": "GGAUCUUCUCGAUCUAACUAAAAAGACAAAUCUGCCUCAAAGCUUGAGAGCAUCUUCGGAUGCAGACGCGGCAGCCUUCGGUGGAGCGAUAGCGCCAACGUUCUCAACGAUGACACGCAAAACGCGUGCUCCGUUGAAUGGAGUUUACCAUG", "note": "[A19U A37U G67C C85A U109G U148C]", "polymerase ribozyme fitness (log ratio)": "≤ -4.2"}, {"variant": "GGAUCUUCUCGAUCUAACUAAAAAGACAAUUCUGCCACAAAGCUUGAGAGCAUCUUCGGAUGCAGAGGCGGCAGCCUUCGGUGGCGCGAGCGCGCCAACGUUCUCAACUAUGACACGGAAAACGCGUGCUCCGUUGAAUGGAGUUUAUCAUG", "note": "[A19U A30U U90G A91C C118G]", "polymerase ribozyme fitness (log ratio)": "≤ -4.2"}, {"variant": "GGAUCUUCUCGAUCUAACUAAAAAGACAAAUCUGCCACAAAGCUUGAGAGCGUCUGCGGAUGCAGAGGCGGCAGCCUUCCGUGUCGCGAUAGCGCCACCGUUCUCAACUUUGACACGCAAAACGCGUGCUCCGUUGAAUGGAGUUUAUCAUG", "note": "[A19U A52G U56G G80C G84U A98C A110U]", "polymerase ribozyme fitness (log ratio)": "≤ -4.2"}, {"variant": "GGAUCUUCUCGAUCUAACUAAAAAGACAAAUCUGCCACAGAGCUUGAGAGCAUCUUCGGAUGCAGAGGCGGCAGCCUUCGGUGGCGCGAUAGCGCCAACGUUCUCAACUCUGACACGCAAAACGCGUGCUCCGUUGAAUGGAGUUUAUCAUG", "note": "[A19U A40G A110C]", "polymerase ribozyme fitness (log ratio)": "≤ -4.2"}, {"variant": "GGAUCUUCUCGAUCUAACUAAAAAGACAAUUCUGCCACAAAGCUUGAGAGCAUCUUCGGAUGCAGAGGCGGGAGCCUUCGGUGGCGCGAUAGCGCUAACGUUCUCGACUAUGACACGCAAACCGCGUGCUCCGUUGAAUUGAGUUUAUCAUG", "note": "[A19U A30U C72G C96U A106G A122C G140U]", "polymerase ribozyme fitness (log ratio)": "≤ -4.2"}, {"variant": "GGAUCUUCUCGAUCUAACUAAAAAGACAAAUCUGCCACAACGCUUGAGACCAUCUUCGGAUGCAGAGGCGGCAGCCUUCGGUGGCGCGAUAGCGCUAAUGGUCUCAACUAUGACACGCAAAACGCGUGCUCCGUUGAAUGGAGUUUAUCAUG", "note": "[A19U A41C G50C C96U C99U U101G]", "polymerase ribozyme fitness (log ratio)": "≤ -4.2"}, {"variant": "GGAUCUUCUCGAUCUAACUAAAAAGACAAAUCUGCCACAAAGCUUGAGAGCCUCAUCGGCUGCAGAGGCGGCAGCUUUCGGUAGUGCGAUAGCGCCAACGUUCUCAACUAUGACACGCAAAACGCGUGGUCCGUUGAAUGGAGUUUAUCGUG", "note": "[A19U A52C U55A A60C C76U G83A C85U C129G A150G]", "polymerase ribozyme fitness (log ratio)": "≤ -4.2"}, {"variant": "GGAUCUUCUCGAUCUAACUAAAAAGACAAAUCUGCCAGAAAGGUUGAGAGCAUCUUCGGAUGCAGAGGCGGCAGCCUUCCGUGGCGUGAUAGCGCCAACGUUCUCAACUAUGACACGCAAAACGCGUGCUCCGUUGAAUGGAGUUUAUGAUG", "note": "[A19U C38G C43G G80C C87U C149G]", "polymerase ribozyme fitness (log ratio)": "≤ -4.2"}, {"variant": "GGAUCUUCUCGAUCUAACUAAAAAGACAAAUCUGCCACAAAGCUUGAGAGCAUCUUCGGAUGCAGAGGCGGCGGCCUUCGGUGGCGCGAUAGCGCCAACGUUCUCAACUAUGACACGCAAAACGCGUGCUCCGUUGAAUGGAGUUUAUCAUG", "note": "[A19U A73G]", "polymerase ribozyme fitness (log ratio)": 0.504}, {"variant": "GGAUCUUCUCGAUCUAACUAAAAAGACAAAUCUGCCACAAAGCUUGAGUGCAUCUUCGGAUGCAGAGGCGACAGCCUUCGGUGGCGCGAUAGUGCCAACGUGGUCAACUAUGACACGCAAAACGCGUGCUCCGUUGAAUGGAGUUUAUCAUG", "note": "[A19U A49U G71A C93U U102G C103G]", "polymerase ribozyme fitness (log ratio)": "≤ -4.2"}, {"variant": "GGAUCUUCUCGAUCUAACUAAAAAGACAAAUCUGCCACAAAGCUUGAGAGCAUCUUCGGAUGCAGAGGCGGCAGCCUUCGGUGGCGCGAUAGCGCCAACGUUCUCAACUAUGACACGCAAAACGCGUGCUCCGUUGAAUGGCGUUUAUCAUG", "note": "[A19U A142C]", "polymerase ribozyme fitness (log ratio)": -1.11}, {"variant": "GGAUCUUCUCGAUCUAACUAAAAAGAUAAAUCUGCCACAAAGCUUGUGAUCAUCUUCGGAUGCAGAGGCGGCAGCCUUGGGUGGCGCGAUAGGGCCAACGUUCUCAACUAUGACACGCAAAACGCGUGCUCCGUUGAAUGAAGUGUAUCAUG", "note": "[A19U C27U A47U G50U C79G C93G G141A U145G]", "polymerase ribozyme fitness (log ratio)": "≤ -4.2"}, {"variant": "GGAUCUUCUCGAUCUAACUAAAAAGACAAAUCUGUCACAAAGCUUGAGAGCAUCUUCGGAUGCAGAGGCGGCAGCCUUCGGUGGCACGAUAGCGCCAACGUUCUCAACUAUGACACGCGAAACGCGUGCUCCGUUGAAUGAAGUUUAUCAUG", "note": "[A19U C35U G86A A119G G141A]", "polymerase ribozyme fitness (log ratio)": -3.69}, {"variant": "GGAUCUUCUCGAUCUAACUAAAAAGACAAAUCUGCCACACAGCUUGAGAGCAUCUUCGGAUGCAGAGGCGGCAGCCUUCGGUGGCGCGAUAGCACCAACGUUCUCAUCUAUGACACGCAAAACGCGUGCUCCGUUGAAUGGAGUUUAUCAUG", "note": "[A19U A40C G94A A107U]", "polymerase ribozyme fitness (log ratio)": "≤ -4.2"}, {"variant": "GGAUCUUCUCGAUCUAACUAAAAAGACAAAUCUGCCCCAAAGCUUGAGAGCAUCUUCGGAUGCAGAGGCGGCAGCCUUCGGGGGCGCGUUAGCGGCCACGUUCUCAUCUAUGACACGCAAAACGCGAGCUCCGUUGAAUGGAGUUUAUCAUG", "note": "[A19U A37C U82G A89U C95G A97C A107U U127A]", "polymerase ribozyme fitness (log ratio)": "≤ -4.2"}]}]}
